Common to all, as to assay: purified protein, by the assay type
Common to all, as to details: other: pH 7.4 and 37° C.

Substrate in data set [1]: OC[C@@H]1C[C@H](F)[C@H](n2cnc3c(Cl)ncnc32)O1
Substrate in data set [2]: Nc1ncnc2c1ncn2[C@@H]1O[C@H](CO)C[C@@H]1F
Substrate in data set [3]: CNc1ncnc2c1ncn2[C@@H]1O[C@H](CO)C[C@@H]1F
Substrate in data set [4]: Nc1ncnc2c1ncn2[C@H]1CC[C@@H](CO)O1

In general, Km refers to the concentration of substrate that gives half-maximal velocity.

B1: adenosine deaminase (adenosine aminohydrolase, EC 3.5.4.4) (Bos taurus) (protein)
chain: MAQTPAFNKPKVELHVHLDGAIKPETILYYGRKRGIALPADTPEELQNIIGMDKPLSLPEFLAKFDYYMPAIAGCREAVKRIAYEFVEMKAKDGVVYVEVRYSPHLLANSKVEPIPWNQAEGDLTPDEVVSLVNQGLQEGERDFGVKVRSILCCMRHQPSWSSEVVELCKKYREQTVVAIDLAGDETIEGSSLFPGHVKAYAEAVKSGVHRTVHAGEVGSANVVKEAVDTLKTERLGHGYHTLEDATLYNRLRQENMHFEVCPWSSYLTGAWKPDTEHPVVRFKNDQVNYSLNTDDPLIFKSTLDTDYQMTKNEMGFTEEEFKRLNINAAKSSFLPEDEKKELLDLLYKAYGMPSPASAEQCL
Consider B1, for which the Km in data set [1] stood at 7500 µM; in data set [2], 330 µM; in data set [3], 110 µM; in data set [4] it was 14 µM.

Values taken from patent publication US5459256A, “Lipophilic, aminohydrolase-activated prodrugs” (priority 1991, dated 1995).
